Results on 2 substances are retold here after US10464987B2.

Assay [1] addresses SIY peptide on H-2Kb (mouse). The assay can be described thus: value stated for 2C in the legend of FIG. 16, no measurement described; given for scTv and full-length constructs alike.
In assay [2] the target is SIY peptide on H-2Kb (mouse). The assay can be described thus: value cited from Chervin et al. 2009 (ref 18); not measured in this filing.
The target in assay [3] is SIY peptide on H-2Kb (mouse). The assay can be described thus: value stated for m33 in the legend of FIG. 16, no measurement described; given for scTv and full-length constructs alike.

Regarding 2C full-length TCR, the Kd in assay [1] amounted to 30000 nM.
As for m33 full-length TCR, the dissociation constant Kd was found to be 16 nM in assay [2] and 30 nM in assay [3].
